Biological target: PA heptamer (Bacillus anthracis, UniProt P13423 197-764)
Assay: BIAcore; PA heptamer immobilized on CM5 chip, IgG1 in solution

PA heptamer, sequence (P13423 197-764): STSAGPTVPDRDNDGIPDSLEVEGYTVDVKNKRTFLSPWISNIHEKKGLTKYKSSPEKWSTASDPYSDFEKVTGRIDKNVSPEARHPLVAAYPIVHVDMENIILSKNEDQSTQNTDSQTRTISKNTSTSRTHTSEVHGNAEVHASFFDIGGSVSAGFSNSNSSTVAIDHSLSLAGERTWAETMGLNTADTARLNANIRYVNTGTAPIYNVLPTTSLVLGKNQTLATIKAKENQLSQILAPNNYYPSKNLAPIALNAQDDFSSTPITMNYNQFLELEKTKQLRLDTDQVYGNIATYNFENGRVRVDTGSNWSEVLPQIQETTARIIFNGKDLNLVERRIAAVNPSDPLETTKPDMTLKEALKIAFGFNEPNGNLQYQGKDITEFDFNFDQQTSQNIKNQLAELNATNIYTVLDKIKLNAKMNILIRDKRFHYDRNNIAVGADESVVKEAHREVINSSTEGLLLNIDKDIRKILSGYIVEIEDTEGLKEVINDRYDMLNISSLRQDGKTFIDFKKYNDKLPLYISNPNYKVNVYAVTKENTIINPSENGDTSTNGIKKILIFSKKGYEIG

B1: PWD0283 (IgG1 format) (antibody, V domains shown)
VH: EVQLLESGGGLVQPGGSLRLSCAASGFTFSSYATSWVRQAPGKGLEWVSAISGSGGSTYYADSVKGRFTISRDNSKNTLYLQMNSLRAEDTAVYYCARVGGAIRFDSWGRGTLVTVSS
VL: SYELTQPPSASETPGQRVSISCSGGTSNIGSNTINWYQQVPGTAPKLLIYFNNRRPAGVPARFSASKSGTSASLTISGLQSEDEADYYCSAWDDSLSGVVFGGGTKLTVLG
- Kd: 187 pM
- koff: 0.000426 s⁻¹
- kon: 2.28e+06 M⁻¹ s⁻¹

— US7906119 (Human Genome Sciences, dated 2011)
